# Experimental data published in publication PMC12362409.
# Legend:
# TRAF2 = TRAF2 (UniProt Q12933); test: anti-Myc co-IP, Flag immunoblot; settings: reference: wild type mMAVS; sites S186,S220
# TRAF3 = TRAF3 (UniProt Q13114); test: anti-Myc co-IP, Flag immunoblot; settings: reference: wild type mMAVS; sites S186,S220
substance,measurement,setting,value
mouse MAVS (mMAVS) (from UniProt Q8VCF0) S186A/S220A (2SA),binding against the reference,TRAF2,weaker
same,binding against the reference,TRAF3,weaker
